{
  "source": "paper PMC5642273",
  "proteins": {"B1": {"name": "(+)-limonene synthase [(+)-LS] (Citrus sinensis) (protein)", "chain": "RRSANYQPSIWDHDFLQSLNSNYTDETYKRRAEELKGKVKTAIKDVTEPLDQLELIDNLQRLGLAYHFEPEIRNILRNIHNHNKDYNWRKENLYATSLEFRLLRQHGYPVSQEVFSGFKDDKVGFICDDFKGILSLHEASYYSLEGESIMEEAWQFTSKHLKEMMITSNSKEEDVFVAEQAKRALELPLHWKAPMLEARWFIHVYEKREDKNHLLLELAKLEFNTLQAIYQEELKDISGWWKDTGLGEKLSFARNRLVASFLWSMGIAFEPQFAYCRRVLTISIALITVIDDIYDVYGTLDELEIFTDAVARWDINYALKHLPGYMKMCFLALYNFVNEFAYYVLKQQDFDMLLSIKHAWLGLIQAYLVEAKWYHSKYTPKLEEYLENGLVSITGPLIITISYLSGTNPIIKKELEFLESNPDIVHWSSKIFRLQDDLGTSSDEIQRGDVPKSIQCYMHETGASEEVAREHIKDMMRQMWKKVNAYTADKDSPLTRTTAEFLLNLVRMSHFMYLHGDGHGVQNQETIDVGFTLLFQPIPLEDKDMAFTASPGTKG"}},
  "substrate": "CC(C)=CCC/C(C)=C/COP(=O)(O)OP(=O)(O)O",
  "assay": "purified protein",
  "settings": "Mn2+",
  "data": [
    {"protein": "B1", "values": [
      {"measurement": "Km", "value": "13.1 ± 0.6", "unit": "µM"}
    ]}
  ]
}
